From the DeepSol protein solubility set

Assay: soluble on expression in E. coli; label from the status in PepcDB or PDB records

Sequence | soluble on expression in E. coli
SFHGIPATPGIGAPGNKPELYEEVKLYKNAREREKYDNMAELFAVVKTMQALEKAYIKDCVSPSEYTAACSRLLVQYKAAFRQVQGSEISSIDEFCRKFRLDCPLAMERIKEDRPITIKDDKGNLNRCIADVVSLFITVMDKLRLEIRAMDEIQPDLRELMETMHRMSHLPPDFEGRQTVSQWLQTLSGMSASDELDDSQVRQMLFDLESAYNAFNRFLHA | soluble
MKNLIAELLFKLAQKEEESKELCAQVEALEIIVTAMLRNMAQNDQQRLIDQVEGALYEVKPDASIPDDDTELLRDYVKKLLKHPCQ | not soluble
MGSDKIHHHHHHMLDQAERLRNMALKKNAGEEIKRPVIITVTSGKGGVGKSNFVVNLSITLQQMNKKVLIFDADVGMGNDDILLGCISKYSVFDVIYNNMKIEDAIVEGPFGVKLLPGGSGITKFKDITEDQINAFVKKLASIGNFDYIIMDTGAGVNRSVLGFISCCEELIILTTPEPTSLTDAYSLFKAVVHFKIKSYAKVVINRVVDNKEGLETYKKFQSVAKKFLKADTEFLGSISEDSRIVKAVRNQTPFVVENPNCYAAKDIQYIANKLMGTTTKDNGLGIEGLFKKLFKIFS | not soluble
MKLNIKDVVLNYNIIGEGEPIIILHGYSVDHTIMFGCMENLFSDESRYKRIYVDLPGMGKSTSSDSIKTSDNMLDIILEFIMKVTKGENFLLVGESYGGYLSRGVVYKIREKVNGLFLICPAIIPDFNKRTVPEHVILAYDEKLMSKLNKEEAEEFSSMSVVQNEKIYLRFKEEVMSGIKLGNQDFLERLQREGYGFSFDVDKLPQKFDKPTLMLLGKQDASVGYKDAWNILDNYPRATFAVLDMAGHNLQIEQEDIFNLLGKEWISRTYREKDY | not soluble
MSLDLASKYFNDIDWRYVDHSSGLAPMQSFAFDDTFSESVGKDLSCNVVRTWIHQHTVILGIHDSRLPFLKDGIKYLTDEIGYNAIVRNSGGLGVVLDQGVLNISLIFKGQTETTIDEAFTVMYLLICKMFENEDVEIDTREIEHSYCPGKFDLSIDGKKFAGISQRRVRGGIAVQIYLCVEGSGSERAEMMRVFYEHALKGEVTKFKYPDIHPECMASLETLFEREIKVQDVMFQLLHAIKDLGGNLNMDPITEDEWTRYEGYFDKMIDRNEKMNRSIEADEGHHHHHH | soluble
MGSDKIHHHHHHMDIDLARTFLEIARSGSFVAAAERLHLTQTAVTARIQNLEGQLGCRLFVRNRAGARLTADGEHFLGYASQLVQTWDAARRDLPLPDGFRNLLNLGGEVSLCNPLLLNWMRRLREAIPGHAVRVEIGQGADLLKQLEQGALDAALVYQPEYWPGLQVEQLLEEKLVMVRSVLSAEPYLYVDWGPDFRSQHDAALPDRAKAALACNLGPLALQYIMQNGGSGYFRTRVVSSYLDGGTLQRVEQAPEFAYPTYLVYSRERLSPTLRHAFQLLREVVREDSDWSQRWDYVI | not soluble
MSIQKNTSTTSSSTLLDLIVIGGGINGAGIAADAAGRGLSVGLYEANDFASATSSASSKLIHGGLRYLEHYEFRLVSEALAEREVILRKAPHVALPMRFRLPHRPFLRPAWMIRCGLFLYDNLGKRTTLPGSKTVNLAKSGLLKPEMKTGFEYSDCWVDDARLVLLNVMAARENHAEVRNYCRVEKAHRENGVWHVTIHDVTTDQRFERKAKALVNAAGPWVKQFFDEGLEQTSPRNIRLIKGSHIVVPRIHNEPQAYILQNKDNRIVFMIPYLDKFSIIGTTDVEYKGDPREVAISDDEVDYLIDIVNQHFVHQLTREDVVWTYSGVRPLCDDESDSPQAITRDYTLELDAEYDQAPLLSVFGGKLTTYRKLGEAAMKKLEPYLPQMGGNWTANQTLPGGNFSCTREQLAKQIHAKYSWAPQALILRYVTQFGTQTWDLMEGASSEADLGQAFSEQAGGVYQREIDYLMNHEMALTDEDILWRRTKLGLYMNDEEKQALADYLKEKLQQKVVNLSQVSLEHHHHHH | soluble
MGSDKIHHHHHHMTDNIKSRRSAVPGCAIHCHDCSMGTLCIPFTLNNNELDQLDDIIERKKPIQKGEQIFKSGDSLKSLYAIRSGTIKSYTITEQGDEQITGFHLAGDVIGFDGIHSQIHQSFAQALETSMVCEIPFDTLDELSGTMPKLRQQIMRLMSNEIQSDQEMILLLSKKNAEERLAAFISNLASRFGSRGFSPKEFRLTMTRGDIGNYLGLTVETISRLLGRFQKAELIEVKGKYITIVDFDSLNKLAGNNKIGR | not soluble
MGSQVQKSDEITFSDYLGLMTCVYEWADSYDSKDWDRLRKVIAPTLRIDYRSFLDKLWEAMPAEEFVGMVSSKQVLGDPTLRTQHFIGGTRWEKVSEDEVIGYHQLRVPHQRYKDTTMKEVTMKGHAHSANLHWYKKIDGVWKFAGLKPDIRWGEFDFDRIAEDGRETFGDK | soluble
MGSDKIHHHHHHMKLKFLGGAEEVGRLGVKITDKDTSVIVDYGVIPEKPPQYPLPPEPVDAMFITHSHLDHIGAVPVYYHKGEPDLYATQMTLNTMKPLLRDALKVTNIEGYPAMFNEDDINSALANMRPARYFESIEVGNMVATPYPAGHIPGSTMWKFEDGISVTVTGDVNTIDTYLINGAKPIKTDVLIIESTYAGKNHESREDVRKRFRDSVKEVIDSGGKVIMPAFAVGRTQELIMTIADMGYDVAVDGMGNDISTIYLNTPGFLRSKKEFLRALSKVRIIKGRNMRENAIRSDIIISTSGMLDGGPVLGYIQKLLEDEKSAIFVTGYQVEGTNGRSLLETGTLTIAGVTVKPKMRVEFFDMSAHAGHDELVNFIKAIDPKKIVLCHGDHRENLLPDLEGYDVLLPYNGKEYEI | not soluble
PFTYSIEATRNLATTERCIQDIRNAPVRNRSTQFQLAQQNMLAYTFGEVIPGFASAGINGMDYRDVIGRPVENAVTEGTHFFRDDFRVDSNAKAKVAGDIFEIVSSAVMWNCAARWNSLMVGEGWRSQPRYSRPTLSPSPRRQVAVLNLPRSFDWVSLLVPESQEVIEEFRAGLRKDGLGLPTSTPDLAVVVLPEEFQNDEMWREEIAGLTRPNQILLSGAYQRLQGRVQPGEISLAVAFKRSLRSDRLYQPLYEANVMQLLLEGKLGAPKVEFEVHTLAPEGTNAFVTYEAASLYGLAEGRSAVHRAIRELYVPPTAADLARRFFAFLNERMELVNG | soluble
SLEHFDDKSQLKRNGFYFSYNVDKENIEHWISAILFQVLKDKEDIVILSLGVDTLVGDSLGPLVGSILKRNGIPNVYGTLDRTVNASNIIKILDEIHERFKNPYILVVDAAVTAENNINDIVLRNGGFTPGFGVYRQLPTVGDFSLVGVVNKEDEREHNLIELLKKCRFDEVLKLARIISKILVLTFARMNKGDK | soluble
STDISTVASPLFEGTEGCFLLYDASTNAEIAQFNKAKCATQMAPDSTFKIALSLMAFDAEIIDQKTIFKWDKTPKGMEIWNSNHTPKTWMQFSVVWVSQEITQKIGLNKIKNYLKDFDYGNQDFSGDKERNNGLTEAWLESSLKISPEEQIQFLRKIINHNLPVKNSAIENTIENMYLQDLDNSTKLYGKTGAGFTANRTLQNGWFEGFIISKSGHKYVFVSALTGNLGSNLTSSIKAKKNAITILNTLNL | soluble
MFVEALKRQNPALISAALSLWQQGKIAPDSWVIDVDQILENGKRLIETARLYGIELYLMTKQFGRNPWLAEKLLALGYSGIVAVDYKEARVMRRAGLPVAHQGHLVQIPCHQVADAVEQGTDIITVFTLDKAREVSAAAVKAGRVQPVLLKVYSDDDFLYPGQESGFVQHSLHEVIAEIKKLPGLHLAGLTHFPCLLWDEAAGKVLPTPNLHTLVQARDQLAKSGIAIEQLNVPSATSCTSLPLLAEYGATHAEPGHALTGTIPANQQGDQPERIAMLWLSEISHHFRGDSYCYGGGYYRRGHAQHALVFTPENQKITETNLKTVDDSSIDYTLPLAGEYPVSSAVVLCFRTQIFVTRSDVVLVSGIQRGEPEIVGRYDSLGNPLEA | not soluble
MGSDKIHHHHHHMTWNLAGSYSETCSCELMCPCNMSFDHGATYDFCRVTLAFNVHEGSVEGTDIAGRKVVLIADTPKVMTDGNWRVGVFVDDGASEEQFDKLVQVFGGQLGGPMAGLAPLIGEMLGVQRAAIDIEDDGLLHSVRVGDEIDFQIQDIVPFGVETGEPVRFAGMFHPVGSDLVMAEAKRTRINAFGITYEGKTGLSKSSFTWAA | not soluble
